The text below walks through data of US20240270806A1.

For the assay, the target named is Human IL-12 receptor (human IL-12Rb1 and IL-12Rb2) (human) (UniProt P42701).
Sequence of Human IL-12 receptor (human IL-12Rb1 and IL-12Rb2) (human) (Q99665 24-862, chain 2 of 2, other chains not shown): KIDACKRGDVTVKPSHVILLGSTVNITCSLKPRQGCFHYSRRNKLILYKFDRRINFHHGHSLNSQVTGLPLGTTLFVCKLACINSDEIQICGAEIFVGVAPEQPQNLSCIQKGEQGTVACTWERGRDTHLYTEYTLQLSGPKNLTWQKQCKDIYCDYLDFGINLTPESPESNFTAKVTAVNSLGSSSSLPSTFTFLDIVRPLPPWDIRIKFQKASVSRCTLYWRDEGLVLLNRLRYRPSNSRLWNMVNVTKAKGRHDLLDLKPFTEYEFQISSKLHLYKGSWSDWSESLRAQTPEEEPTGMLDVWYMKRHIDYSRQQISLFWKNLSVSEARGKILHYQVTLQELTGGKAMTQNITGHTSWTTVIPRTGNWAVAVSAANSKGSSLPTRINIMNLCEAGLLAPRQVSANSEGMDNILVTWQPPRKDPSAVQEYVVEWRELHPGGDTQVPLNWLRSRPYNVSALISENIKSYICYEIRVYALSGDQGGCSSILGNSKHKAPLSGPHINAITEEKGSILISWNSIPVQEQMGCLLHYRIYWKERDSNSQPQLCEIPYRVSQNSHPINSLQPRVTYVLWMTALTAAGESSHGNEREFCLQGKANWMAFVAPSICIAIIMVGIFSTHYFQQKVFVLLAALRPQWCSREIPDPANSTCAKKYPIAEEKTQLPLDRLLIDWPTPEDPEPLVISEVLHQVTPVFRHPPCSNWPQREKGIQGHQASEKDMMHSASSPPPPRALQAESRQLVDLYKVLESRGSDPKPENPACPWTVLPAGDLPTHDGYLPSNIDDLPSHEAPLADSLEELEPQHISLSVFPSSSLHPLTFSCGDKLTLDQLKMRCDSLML

Sequence of rhIL-12 (P29460 23-328 limits assumed): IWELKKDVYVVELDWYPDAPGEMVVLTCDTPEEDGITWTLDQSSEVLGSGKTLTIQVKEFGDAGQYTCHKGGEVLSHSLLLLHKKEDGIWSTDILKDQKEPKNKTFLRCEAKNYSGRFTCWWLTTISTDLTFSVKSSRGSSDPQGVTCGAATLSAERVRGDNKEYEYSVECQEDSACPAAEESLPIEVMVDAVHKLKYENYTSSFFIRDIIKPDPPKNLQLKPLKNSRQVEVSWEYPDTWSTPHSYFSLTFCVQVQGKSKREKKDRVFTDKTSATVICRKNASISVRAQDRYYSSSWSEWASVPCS
Sequence of rhIL-12 (P29459 23-219 limits assumed): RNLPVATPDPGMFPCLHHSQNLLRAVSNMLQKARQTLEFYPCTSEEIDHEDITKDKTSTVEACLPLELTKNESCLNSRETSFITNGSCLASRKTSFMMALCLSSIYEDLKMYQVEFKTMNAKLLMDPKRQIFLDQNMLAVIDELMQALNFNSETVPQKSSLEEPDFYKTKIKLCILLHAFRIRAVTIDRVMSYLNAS

For “rhIL-12 (from UniProt P29460 23-328; P29459 23-219) (ligand)”, the EC50 (read off the curve), IL-12 luciferase reporter assay (+ Protease) turned out to be 0.2 nM and the EC50 (read off the curve), IL-12 luciferase reporter assay (without protease) was found to be 0.2 nM.
